Patent US20240209093A1 (I MAB BIOPHARMA, published 2024)
Read-outs that look alike come from different tables or passages of the source.

T1: His-tagged human TIGIT-ECD protein (human, UniProt Q495A1 22-141)
T1 construct: extracellular domain; also called hTIGIT-his
T1 sequence (looked up): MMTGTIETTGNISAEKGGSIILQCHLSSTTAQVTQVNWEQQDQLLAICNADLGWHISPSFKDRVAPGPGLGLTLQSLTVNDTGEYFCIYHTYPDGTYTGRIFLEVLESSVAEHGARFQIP


Experiments:
[1] = target: T2, human PD-L1 on cells (human, UniProt Q9NZQ7 19-290); experiment: flow cytometry on Raji cells overexpressing human PD-L1, PE-anti-hu IgG [panel C]
T2 construct: whole, on cells; also called Raji cells overexpressing human PD-L1; Raji-PD-L1 cells
Procedure: Furthermore, binding capability of the anti-PD-L1/TIGIT bsAbs of the present application with cells expressing PD-L1 was analyzed by using Raji-PD-L1 cells. Briefly, 50 μl Raji cells overexpressing human PD-L1 were seeded into 96 well plate with 2*10⁵ cells/well.

[2] = target: T3, human PD-L1-his (human, UniProt Q9NZQ7 19-238); experiment: ELISA, plate coated with human His-PD-L1, detection goat anti-human IgG Fc HRP
T3 construct: also called hPD-L1-his; human His-PD-L1
Excerpt: Binding properties of the humanized anti-PD-L1 antibody of the present application were first evaluated by ELISA assay.

[3] = target: T2, human PD-L1 on cells; experiment: flow cytometry on Raji cells overexpressing human PD-L1, PE-anti-hu IgG
Procedure: Binding capability of the anti-PD-L1 antibody of the present application was further evaluated by using Raji cells overexpressing human PD-L1. Briefly, 50 μl Raji cells overexpressing human PD-L1 were seeded into 96 well plate at a concentration of 2*10⁵ cells/well. […] Then the cells were washed twice by FACS buffer and supplemented with 100 μl PE-anti-hu IgG, followed by incubation on ice for 1 hour. After incubation, the cells in each well were collected and resuspended with 65 μl FACS buffer for analysis by flow cytometry.

[4] = target: T3, human PD-L1-his; experiment: ELISA, plate coated with human His-PD-L1, detection goat anti-human IgG Fc HRP [panel B]
Excerpt: (§1) Binding of the anti-PD-L1/TIGIT bsAb molecules with human PD-L1 was further analyzed by ELISA.

[5] = target: T3, human PD-L1-his; experiment: SPR, Biacore T200, antibody captured on protein A chip, hPD-L1-his 6.25-100 nM as analyte
Procedure: The binding affinity of the PD-L1/TIGIT bsAb to recombinant human his-tagged PD-L1 protein was tested by BIACORE®. […] A series of dilutions of human PD-L1 protein (6.25 nM-100 nM) were injected over captured antibody at a flow rate of 10 μL/min. The antigen was allowed to associate for 180 s and dissociate for 1200 s. All the experiments were carried out on a Biacore T200. Data analysis was carried out using Biacore T200 evaluation software.

[6] = target: T2, human PD-L1 on cells; experiment: flow cytometry on RKO cells (endogenous CD47 and PD-L1), APC-labelled secondary antibody
Procedure: (§2) RKO cells are human colon carcinoma cell lines that express endogenous level of human CD47 and human PD-L1 on the surface. RKO cells were incubated with serial diluted anti-CD47/PD-L1 bispecific antibodies, parental CD47 or PD-L1 monospecific antibodies at 4° C. for 30 minutes. Then cells were washed with FACS buffer three times, followed by incubation with APC-labeled secondary antibody at 4° C. for 30 minutes. Then cells were washed with FACS buffer for three times. Binding was measured by flow cytometry.

[7] = target: T3, human PD-L1-his; experiment: ELISA, plate coated with human His-PD-L1, detection goat anti-human IgG Fc HRP [panel A]
Excerpt: as §1

[8] = target: T3, human PD-L1-his; experiment: SPR, Biacore, full kinetics, antigen 100-1.5625 nM
[9] = target: T2, human PD-L1 on cells; experiment: flow cytometry on RKO cells, which carry both human CD47 and human PD-L1; APC-labelled secondary antibody; signal not resolved between the two arms
Procedure: as §2

[10] = target: T4, Tag1-CD47 (UniProt Q08722 19-139); experiment: HTRF CD47/SIRPα binding assay (Cisbio): blocking of Tag2-SIRPa binding to Tag1-CD47; axis numbers -3 to 3 read as log10 of nM
T4 construct: Bought kit reagent
Excerpt: Fluorescence data were read on a PerkinElmer Envision plate reader using laser as light source.

[11] = target: T1, His-tagged human TIGIT-ECD protein; experiment: SPR, Biacore T200, antibody captured on protein A chip, hTIGIT-his 0.78-12.5 nM as analyte
Excerpt: The antibodies were captured by Protein A chip. […] The association phase was 180 s and the dissociation phase was 1200 s.

[12] = target: T1, His-tagged human TIGIT-ECD protein; experiment: ELISA on His-tagged human TIGIT
[13] = target: T1, His-tagged human TIGIT-ECD protein; experiment: ELISA on His-tagged human TIGIT; remark: listed apart in the source

T3 sequence (Q9NZQ7 19-238 limits assumed): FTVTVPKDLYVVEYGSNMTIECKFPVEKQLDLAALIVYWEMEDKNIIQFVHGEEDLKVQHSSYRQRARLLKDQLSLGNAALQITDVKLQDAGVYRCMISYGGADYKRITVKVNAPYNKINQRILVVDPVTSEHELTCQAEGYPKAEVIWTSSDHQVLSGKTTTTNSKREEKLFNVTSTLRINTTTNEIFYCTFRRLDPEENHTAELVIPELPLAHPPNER
T2 sequence (Q9NZQ7 19-290): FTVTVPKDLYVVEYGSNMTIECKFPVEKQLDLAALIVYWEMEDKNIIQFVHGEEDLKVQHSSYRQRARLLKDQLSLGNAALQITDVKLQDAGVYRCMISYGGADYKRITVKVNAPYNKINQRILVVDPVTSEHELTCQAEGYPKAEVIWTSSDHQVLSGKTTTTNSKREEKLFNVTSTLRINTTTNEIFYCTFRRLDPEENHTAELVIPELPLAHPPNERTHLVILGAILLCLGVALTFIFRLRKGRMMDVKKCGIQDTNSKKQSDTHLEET
T4 sequence (Q08722 19-139 limits assumed): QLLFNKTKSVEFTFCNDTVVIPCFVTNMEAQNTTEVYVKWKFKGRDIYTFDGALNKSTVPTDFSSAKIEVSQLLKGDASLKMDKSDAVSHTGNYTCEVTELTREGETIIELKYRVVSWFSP

| EC50 (read off the curve) [1] | EC50 (read off the curve) [2] | EC50 (read off the curve) [3] | EC50 (read off the curve) [4] | Kd [5] | koff [5] | kon [5] | EC50 (read off the curve) [7] | binding result [9] | IC50 (read off the curve) [10] | Binder | other results |
| --- | --- | --- | --- | --- | --- | --- | --- | --- | --- | --- | --- |
| – | – | – | – | – | – | – | – | binds | ~1000 pM | 34C5-L-93VH6-IgG1 (bispecific antibody, Symmetric 'two to two' anti-CD47/PD-L1 bispecific) heavy: not shown light: DIQMTQSPSSLSASVGDRVTITCRASQDISDYLNWYQQKPGKAPKLLIYYISRLHSGVPSRFSGSGSGTDYTLTISSLQPEDFATYYCQQGHTLPWTFGGGTKVEIKGGGGSGGGGSGGGGSGGGGSEVQLVESGGGLVQPGGSLRLSCAASGFTFTFRHYVMGWFRQAPGKEREFVAAISWSGSGSYYADSVKGRFTISRDNSKNTVYLQMNSLRAEDTAVYYCAADMTTRMSQASREYDYWGQGTLVTVSSRTVAAPSVFIFPPSDEQLKSGTASVVCLLNNFYPREAKVQWKVDNALQSGNSQESVTEQDSKDSTYSLSSTLTLSKADYEKHKVYACEVTHQGLSSPVTKSFNRGEC | – |
| – | – | – | – | – | – | – | – | binds | ~1000 pM | 13H3-L-93VH6-IgG1 (bispecific antibody, Symmetric 'two to two' anti-CD47/PD-L1 bispecific) heavy: not shown light: DIVMTQSPDSLAVSLGERATINCKSSQSVLYAGNNRNYLAWYQQKPGQPPKLLINQASTRASGVPDRFSGSGSGTEFTLIISSLQAEDVAIYYCQQYYTPPLAFGGGTKLEIKGGGGSGGGGSGGGGSGGGGSEVQLVESGGGLVQPGGSLRLSCAASGFTFTFRHYVMGWFRQAPGKEREFVAAISWSGSGSYYADSVKGRFTISRDNSKNTVYLQMNSLRAEDTAVYYCAADMTTRMSQASREYDYWGQGTLVTVSSRTVAAPSVFIFPPSDEQLKSGTASVVCLLNNFYPREAKVQWKVDNALQSGNSQESVTEQDSKDSTYSLSSTLTLSKADYEKHKVYACEVTHQGLSSPVTKSFNRGEC | – |
| ~400 pM | – | – | ~20 pM | – | – | – | – | – | – | TIGIT-Fc-112-VH47 (bispecific antibody, human IgG1, kappa) heavy: not shown light: DIVMTQSPSSLSASVGDRVTITCKASQDVDTAVAWYQQKPGKAPKLLIYWASARHTGVPSRFSGSGSGTDFTFTISSLQPEDIATYYCQQYSNYPLTFGQGTKLEIKRTVAAPSVFIFPPSDEQLKSGTASVVCLLNNFYPREAKVQWKVDNALQSGNSQESVTEQDSKDSTYSLSSTLTLSKADYEKHKVYACEVTHQGLSSPVTKSFNRGEC | EC50 (read off the curve) [13]: ~10 pM |

More lines, now with the values behind:

| Binder | EC50 (read off the curve) [1] | EC50 (read off the curve) [2] | EC50 (read off the curve) [3] | EC50 (read off the curve) [4] | Kd [5] | koff [5] | kon [5] | EC50 (read off the curve) [7] | binding result [9] | IC50 (read off the curve) [10] | other results |
| --- | --- | --- | --- | --- | --- | --- | --- | --- | --- | --- | --- |
| 112-VH47 (VHH, Humanized anti-PD-L1 single domain antibody) VHH: EVQLVESGGGLVQPGGSLRLSCAASGFTFSSGTQFSDSKIDWYRQAPGKGLVWVAGIFSTGSTIYEDSVKGRFTISRDNAKNTGYLQMNSLRAEDTAVYYCRVIGRGILAWGQGTLVTVSS | ~300 pM | ~9 pM | ~300 pM | ~9 pM | – | – | – | – | – | – | – |
| 93-VH-6 (VHH, Humanized anti-PD-L1 single domain antibody; the assays imply a human Fc part that is not described; also called PD-L1 Ab (93-VH6); 93-VH6 sdAb) VHH: EVQLVESGGGLVQPGGSLRLSCAASGFTFTFRHYVMGWFRQAPGKEREFVAAISWSGSGSYYADSVKGRFTISRDNSKNTVYLQMNSLRAEDTAVYYCAADMTTRMSQASREYDYWGQGTLVTVSS | – | ~20 pM | ~400 pM | – | 3640 pM | 0.000128 s⁻¹ | 35300 M⁻¹ s⁻¹ | ~1000 pM | – | – | EC50 (read off the curve) [6]: ~300 pM; Kd [8]: 2060 pM; koff [8]: 0.000197 s⁻¹; kon [8]: 95900 M⁻¹ s⁻¹ |
| TIGIT-CL-93-VH6 (bispecific antibody, human IgG1, kappa, Two 93-VH6 fused to the C-termini of the anti-TIGIT light chains; also called TIGIT-CL-PD-L1 format) heavy: not shown light: DIVMTQSPSSLSASVGDRVTITCKASQDVDTAVAWYQQKPGKAPKLLIYWASARHTGVPSRFSGSGSGTDFTFTISSLQPEDIATYYCQQYSNYPLTFGQGTKLEIKRTVAAPSVFIFPPSDEQLKSGTASVVCLLNNFYPREAKVQWKVDNALQSGNSQESVTEQDSKDSTYSLSSTLTLSKADYEKHKVYACEVTHQGLSSPVTKSFNRGECGGGGSGGGGSGGGGSGGGGSEVQLVESGGGLVQPGGSLRLSCAASGFTFTFRHYVMGWFRQAPGKEREFVAAISWSGSGSYYADSVKGRFTISRDNSKNTVYLQMNSLRAEDTAVYYCAADMTTRMSQASREYDYWGQGTLVTVSS | – | – | – | – | 3970 pM | 0.000143 s⁻¹ | 35900 M⁻¹ s⁻¹ | ~1000 pM | – | – | Kd [11]: 103 pM; koff [11]: 0.000176 s⁻¹; kon [11]: 1.72e+06 M⁻¹ s⁻¹; EC50 (read off the curve) [12]: ~500 pM |
